# Patent US20260116991A1 (HAINAN SIMCERE ZAIMING PHARMACEUTICAL, published 2026)
# Where a chain is given by its changes, count along the chain named.
# B1: hAb007LH1L1c (antibody, human IgG1, V domains shown)
# VH: EVQLVQSGAEVKKPGSSVKVSCKASGYTFSDYEMHWVRQAPGQGLEWMGTIDPETGNTAYNQKFKGRVTITADKSTSTAYMELSSLRSEDTAVYYCTRPYSLTYWGQGTLVTVSS
# VL: DIVMTQTPLSLPVTPGEPASISCRSSQSFVHSNADTYLQWYLQKPGQSPQLLIYKVSNRFSGVPDRFSGSGSGTDFTLKISRVEAEDVGVYYCFQGSHVPYTFGQGTKLEIK
# notes: Humanized F3.81.19, H1+L1c
# B2: hAb007LH1L1d (antibody, human IgG1, V domains shown)
# VH: B1 VH
# VL: B1 VL with A34S
# notes: Humanized F3.81.19, H1+L1d
# B3: hAb007LH1L1e (antibody, human IgG1, V domains shown)
# VH: B1 VH
# VL: B1 VL with A34V
# notes: Humanized F3.81.19, H1+L1e
# Legend:
# [1] = molecular target: T1, monkey GPC3-His protein (monkey); experiment: ELISA, monkey GPC3-His coated; antibody 0.002 nM
# T1 construct: Bought protein; also called monkey GPC3 protein
# Procedure: (§1) The specific method is described as follows: The antigen protein was diluted with PBS to a final concentration of 1 μg/mL, and the diluent was added to a 96-well ELISA plate at 50 μL/well. The plate was sealed with a plastic film and incubated at 4° C. overnight, washed twice with PBS the next day, and a blocking solution [PBS+2% (w/w) BSA] was added for blocking at room temperature for 2 h. […] After incubation at 37° C. for 2 h, the plate was washed 3 times with PBS. A horseradish peroxidase (HRP)-labeled secondary antibody (purchased from Merck, Cat. No. AP113P) was added for incubation at 37° C. for 1 h, and the plate was washed 5 times with PBS. A TMB substrate was added at 50 μL/well for incubation at room temperature for 10 min, then a stop solution (1.0M HCl) was added at 50 μL/well.
# [2] = molecular target: T1, monkey GPC3-His protein; experiment: ELISA, monkey GPC3-His coated; antibody 0.056 nM
# Procedure: as §1
# [3] = molecular target: T1, monkey GPC3-His protein; experiment: ELISA, monkey GPC3-His coated; antibody 0.0004 nM
# Procedure: as §1
# [4] = molecular target: T1, monkey GPC3-His protein; experiment: ELISA, monkey GPC3-His coated; antibody 34.72 nM
# Procedure: as §1
# [5] = molecular target: T1, monkey GPC3-His protein; experiment: ELISA, monkey GPC3-His coated; antibody 6.94 nM
# Procedure: as §1
# [6] = molecular target: T1, monkey GPC3-His protein; experiment: ELISA, monkey GPC3-His coated; antibody 0.28 nM
# Procedure: as §1
# [7] = molecular target: T2, GPC3 on HepG2 cells (human, UniProt P51654 25-554); experiment: FACS on HepG2 cells
# T2 construct: whole, on cells; also called glypican-3
# Procedure: The desired cells were expanded to a logarithmic growth phase in a T-75 cell culture flask, the medium was removed by pipetting, and the cells were washed twice with a PBS buffer, and digested with trypsin. Then a complete medium was added to stop the digestion, and the cells were blown into a single cell suspension. After counting, the cells were centrifuged, and the cell pellet was resuspended with an FACS buffer (PBS+2% fetal bovine serum) to 2×10⁶ cells/mL. The cell resuspension solution was added to a 96-well FACS reaction plate at 50 μl/well, and a humanized antibody sample to be tested was added at 50 μl/well for incubation at 4° C. for 1 h. […] After the plate was centrifuged and washed 3 times with a PBS buffer, 100 μl of the resulting solution was assayed and analyzed by FACS (FACS Canto™, purchased from BD Biosciences). Data analysis was performed by software (FlowJo) to obtain the mean fluorescence intensity (MFI) of the cells. Then, analysis was performed by software (GraphPad Prism8), data were fitted, and EC₅₀ values were calculated.
# [8] = molecular target: T1, monkey GPC3-His protein; experiment: ELISA, monkey GPC3-His coated; antibody 0.011 nM
# Procedure: as §1
# [9] = molecular target: T1, monkey GPC3-His protein; experiment: ELISA, monkey GPC3-His coated; antibody 1.39 nM
# Procedure: as §1
binder,measurement,setting,value
B1,OD450 nm,[1],0.069
same,OD450 nm,[2],0.268
same,OD450 nm,[3],0.05
same,OD450 nm,[4],1.25
same,OD450 nm,[5],1.26
same,OD450 nm,[6],0.744
same,EC50,[7],3.67 nM
same,Max MFI,[7],3770
same,OD450 nm,[8],0.103
same,OD450 nm,[9],1.3
B2,OD450 nm,[1],0.078
same,OD450 nm,[2],0.235
same,OD450 nm,[3],0.053
same,OD450 nm,[4],1.25
same,OD450 nm,[5],1.3
same,OD450 nm,[6],0.752
same,EC50,[7],4.39 nM
same,Max MFI,[7],3830
same,OD450 nm,[8],0.09
same,OD450 nm,[9],1.2
B3,OD450 nm,[1],0.148
same,OD450 nm,[2],0.148
same,OD450 nm,[3],0.043
same,OD450 nm,[4],1.14
same,OD450 nm,[5],1.17
same,OD450 nm,[6],0.399
same,EC50,[7],10.1 nM
same,Max MFI,[7],2910
same,OD450 nm,[8],0.14
same,OD450 nm,[9],0.848
